Experimental findings from PMC8632965, “CD98-induced CD147 signaling stabilizes the Foxp3 protein to maintain tissue homeostasis” (Cellular and Molecular Immunology, 2021) are described below.

Broadly, the Kd is a measure of binding affinity in units of concentration.

This test has as its target CDK2 protein (purchased from Sino Biological Inc.) (UniProt P24941 1-298). Kind of test: SPR; CD147ICD immobilised on a CM5 chip; CDK2 injected at 30 µL/min; BSA signal subtracted. The note with it: both partners purified. (In general: Surface plasmon resonance follows binding to a sensor surface in real time, without labels.)

B1: intracellular portion of CD147 (ICD, 230-269) (domain or fragment)
chain: EKRRKPEDVLDDDDAGSAPLKSSGQHQNDKGKNVRQRNSS
notes: CD147 (basigin), human, residues 230-269, intracellular portion; also called CD147’s intracellular domain; CD147’s intracellular segment; source: E. coli OrigamiB (DE3), purified (expressed and purified in the same way as for CD147)
B1: the Kd is 16.7 µM.
